# Results taken from patent publication US20050288223A1.
# Target: mouse LSR (lipolysis stimulated receptor) (mouse) (UniProt Q99KG5)
# Experiment: cell-based or functional assay
# Chain of UniProt Q99KG5 (Q99KG5 36-594): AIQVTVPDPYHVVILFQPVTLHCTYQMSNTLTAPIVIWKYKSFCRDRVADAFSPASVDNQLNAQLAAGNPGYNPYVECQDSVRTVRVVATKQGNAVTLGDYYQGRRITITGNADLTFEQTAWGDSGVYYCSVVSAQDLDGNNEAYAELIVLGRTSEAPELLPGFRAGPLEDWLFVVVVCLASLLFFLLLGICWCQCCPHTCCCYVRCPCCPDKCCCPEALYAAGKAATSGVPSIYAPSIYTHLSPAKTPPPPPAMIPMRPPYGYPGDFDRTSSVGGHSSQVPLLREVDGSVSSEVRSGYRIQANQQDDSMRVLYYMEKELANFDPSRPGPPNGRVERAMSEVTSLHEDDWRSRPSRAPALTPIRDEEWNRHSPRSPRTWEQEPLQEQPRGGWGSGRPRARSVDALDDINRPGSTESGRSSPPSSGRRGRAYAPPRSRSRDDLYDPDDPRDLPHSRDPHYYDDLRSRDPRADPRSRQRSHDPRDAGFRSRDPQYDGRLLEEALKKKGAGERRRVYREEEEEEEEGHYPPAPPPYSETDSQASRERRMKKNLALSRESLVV
substance,measurement,value
125I-mouse leptin (from UniProt P41160 22-167) (ligand),cell-associated 125I-leptin in BPRCL mouse liver cells after pre-incubation with increasing AdipoQ (AQ) or globular AdipoQ (AQ-GH),> 30%
